Experimental data reported in patent US20150299764A1, “IMMOBILISED CYCLIN-DEPENDENT KINASE 4 FUSION PROTEINS AND USES THEREOF” (UNIVERSITE LIBRE DE BRUXELLES, priority 2012, published 2015).

Assays:
[1] = tested on: 48-kDa fragment (amino acid 773-928) of pRb; test: pRb kinase assay on HEK293T cell extract bound to streptavidin-coated sepharose beads; assay type: biochemical; settings: transiently transfected HEK293T cells, P-Rb T826 immunoblot
Protocol: In order to verify if the transgenes expressed in HEK293T cells after transient transfection could be immobilized on streptavidin-coated sepharose bead and were enzymatically active, HEK293T cells were cultivated and transfected with the indicated plasmids as described in Example 12.
After transfection, cells were washed with PBS and lysed on ice in 1 ml NP-40 lysis buffer as described in Example 11. The homogenized (glass/glass) cellular lysate was sonicated 3 times and stored at −20° C. Equal amount of protein from the defrozen lysates were then incubated for 3 h at 4° C. under slight shaking with 5 μl of streptavidin-coated sepharose beads (GE Healthcare) which had been prewashed three times with NP-40 lysis buffer without inhibitors. After 3 h, beads bound with transgene are washed three times with cold NP-40 lysis buffer without inhibitors before enzymatic activities are measured.
(§1) The pRb kinase assay was performed on the cellular extract bound to the streptavidin-coated sepharose beads as described previously (Coulonval et al., 2003, Exp. Cell Res., 291, 135-149). […] Proteins were resolved by SDS-PAGE and transferred on PVDF membranes (Perkin Elmer) before the phosphorylation on T826 of the pRb fragment was detected using the phosphor-specific pRb (T826) antibody (Thermo Fisher). […]
The pRb kinase assay was performed on the cellular extract bound to the streptavidin-coated sepharose beads (GE Healthcare) as described previously (Coulonval et al., 2003, Exp. Cell Res., 291, 135-149). […] Proteins were resolved by SDS-PAGE and transferred on low fluorescence PVDF membranes (Millipore) before the phosphorylation on T826 of the pRb fragment was detected using a phospho-specific rabbit anti-pRb (T826) antibody (Epitomics). Total GST-Rb load of the membranes was quantitated using the mouse anti-GST antibody (Pierce). […]

[2] = tested on: 48-kDa fragment (aa 773-928) of pRb; test: pRb kinase assay on MCF7 cell extract bound to streptavidin-coated sepharose beads; assay type: biochemical
Protocol: In order to verify if transgenes expressed in MCF7 cells after transduction with the vectors described in Example 8 could be immobilized on streptavidin-coated sepharose bead and were enzymatically active, the MCF7 cells expressing the luciferase or the cyclin D3/CDK4 fusion protein described in the Example 14 were cultivated in 10 cm Petri dishes with 10 ml DMEM medium supplemented with 5% serum, insulin 6 ng/ml, NEAA (Gibco) 0.1 mM, Sodium pyruvate (1 mM), Penicillin (50 U/ml) and Streptomycin (50 μg/ml). The cells were rendered quiescent by incubating them for three days in phenol-free DMEM without serum and insulin, but supplemented with biotin (0.1 mM), NEAA (0.1 mM, Gibco), Sodium pyruvate (1 mM), Penicillin (50 U/ml) and Streptomycin (50 μg/ml). During the last 24 hours, fulvestrant (10 nM) was added to the culture to block estrogen receptor action. Cells were stimulated to proliferate by adding 5% serum, 6 ng/ml insulin and 100 nM β-estradiol in the culture medium for 16 hours in the continuous presence of biotin (0.1 mM). At the end of the culture, cells were washed with PBS and lysed on ice in 1 ml NP-40 lysis buffer as described in Example 10. The homogenized (glass/glass) cellular lysate was sonicated 3 times and stored at −20° C. Equal amounts of protein from the defrozen lysate were then incubated for 3 h at 4° C. under slight shaking with 5 μl of streptavidin-coated sepharose beads which had been prewashed three times with NP-40 lysis buffer without inhibitors. After 3 h, beads bound with transgene were washed three times with cold NP-40 lysis buffer without inhibitors before enzymatic activities were measured.
as §1, with “supra).” for “2003, Exp. Cell Res., 291, 135-149).”, “phospho-specific anti-pRb” for “phosphor-specific pRb”

| Molecule | Rb kinase activity of the immobilized fusion protein [1] | Rb kinase activity of the immobilized fusion protein ([1]; listed as cyclin D3/CDK4) | Rb kinase activity of the immobilized fusion protein ([2]; 16 h after serum/insulin/β-estradiol stimulation of MCF7 cells (FIG. 11B, lane 8)) | Rb kinase activity of the immobilized fusion protein ([2]; quiescent MCF7 cells (FIG. 11B, lane 7)) | Rb kinase activity of the immobilized fusion protein ([2]; stable MCF7 populations cultivated with 5% serum and insulin (FIG. 16)) |
| --- | --- | --- | --- | --- | --- |
| D3L2K4: cyclin D3 and CDK4 connected by the linker L2, SEQ ID NO. 10 (protein) MELLCCEGTRHAPRAGPDPRLLGDQRVLQSLLRLEERYVPRASYFQCVQREIKPHMRKMLAYWMLEVCEEQRCEEEVFPLAMNYLDRYLSCVPTRKAQLQLLGAVCMLLASKLRETTPLTIEKLCIYTDHAVSPRQLRDWEVLVLGKLKWDLAAVIAHDFLAFILHRLSLPRDRQALVKKHAQTFLALCATDYTFAMYPPSMIATGSIGAAVQGLGACSMSGDELTELLAGITGTEVDCLRACQEQIEAALRESLREASQTSSSPAPKAPRGSSSQGPSQTSTPTDVTAIHLASKGGGGSLEVLFQPSRMATSRYEPVAEIGVGAYGTVYKARDPHSGHFVALKSVRVPNGGGGGGGLPISTVREVALLRRLEAFEHPNVVRLMDVCATSRTDREIKVTLVFEHVDQDLRTYLDKAPPPGLPAETIKDLMRQFLRGLDFLHANCIVHRDLKPENILVTSGGTVKLADFGLARIYSYQMALTPVVVTLWYRAPEVLLQSTYATPVDMWSVGCIFAEMFRRKPLFCGNSEADQLGKIFDLIGLPPEDDWPRDVSLPRGAFPPRGPRPVQSVVPEMEESGAQLLLEMLTFNPHKRISAFRALQHSYLHKDEGNPE | No difference in Rb-kinase activity | active | strongly enhanced | detectable | – |
| D3L3K4: cyclin D3 and CDK4 connected by the Prescission-cleavable linker L3, SEQ ID NO. 79 (protein) MELLCCEGTRHAPRAGPDPRLLGDQRVLQSLLRLEERYVPRASYFQCVQREIKPHMRKMLAYWMLEVCEEQRCEEEVFPLAMNYLDRYLSCVPTRKAQLQLLGAVCMLLASKLRETTPLTIEKLCIYTDHAVSPRQLRDWEVLVLGKLKWDLAAVIAHDFLAFILHRLSLPRDRQALVKKHAQTFLALCATDYTFAMYPPSMIATGSIGAAVQGLGACSMSGDELTELLAGITGTEVDCLRACQEQIEAALRESLREASQTSSSPAPKAPRGSSSQGPSQTSTPTDVTAIHLASKGGGGSLEVLFQPSRMATSRYEPVAEIGVGAYGTVYKARDPHSGHFVALKSVRVPNGGGGGGGLPISTVREVALLRRLEAFEHPNVVRLMDVCATSRTDREIKVTLVFEHVDQDLRTYLDKAPPPGLPAETIKDLMRQFLRGLDFLHANCIVHRDLKPENILVTSGGTVKLADFGLARIYSYQMALTPVVVTLWYRAPEVLLQSTYATPVDMWSVGCIFAEMFRRKPLFCGNSEADQLGKIFDLIGLPPEDDWPRDVSLPRGAFPPRGPRPVQSVVPEMEESGAQLLLEMLTFNPHKRISAFRALQHSYLHKDEGNPE | No difference in Rb-kinase activity | – | – | – | only detected |
